Source: patent US20140087995A1 (published 2014)
Numbered stars: 1 amine (or outer) side, 2 acyl side, 3 side chain; on linkers, the order of the positions; unused ones are H or OH. Bridge positions count the residues as written; N and C are the ends. Side chains are listed from the residue outwards. Ends that are not written are not given here. * marks the point of attachment. C20 diacid = O=C(O)CCCCCCCCCCCCCCCCCCC(=O)*; C18 diacid = O=C(O)CCCCCCCCCCCCCCCCC(=O)*; C16 diacid = O=C(O)CCCCCCCCCCCCCCC(=O)*; γGlu = O=C(O)[C@H](CCC(=O)[*:2])N[*:1]; C14 diacid = O=C(O)CCCCCCCCCCCCC(=O)*; AEEA = NCCOCCOCC(=O)O

T1: human calcitonin receptor (human, UniProt P30988 25-474)
T1 construct: whole, on cells; Used as membranes prepared from the transfected cells (Assay VII); also called hCTR; hCT
T1 sequence (looked up): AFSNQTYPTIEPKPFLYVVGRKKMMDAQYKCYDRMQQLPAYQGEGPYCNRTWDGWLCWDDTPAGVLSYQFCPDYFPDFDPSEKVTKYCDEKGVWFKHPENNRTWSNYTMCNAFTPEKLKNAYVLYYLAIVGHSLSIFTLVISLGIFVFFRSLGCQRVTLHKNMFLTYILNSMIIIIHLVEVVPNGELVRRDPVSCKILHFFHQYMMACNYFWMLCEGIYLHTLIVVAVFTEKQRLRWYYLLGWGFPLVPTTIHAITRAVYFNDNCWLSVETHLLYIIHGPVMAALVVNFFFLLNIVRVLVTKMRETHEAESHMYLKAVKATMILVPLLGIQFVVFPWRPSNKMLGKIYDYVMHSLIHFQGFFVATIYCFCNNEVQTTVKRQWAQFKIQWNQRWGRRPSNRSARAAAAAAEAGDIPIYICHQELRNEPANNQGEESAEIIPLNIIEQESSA

T2: rat calcitonin receptor (rat, UniProt P32214 25-516)
T2 construct: whole, on cells; Used as membranes prepared from the transfected cells (Assay VIII); also called rCTR; rat calcitonin (a) receptor
T2 sequence (looked up): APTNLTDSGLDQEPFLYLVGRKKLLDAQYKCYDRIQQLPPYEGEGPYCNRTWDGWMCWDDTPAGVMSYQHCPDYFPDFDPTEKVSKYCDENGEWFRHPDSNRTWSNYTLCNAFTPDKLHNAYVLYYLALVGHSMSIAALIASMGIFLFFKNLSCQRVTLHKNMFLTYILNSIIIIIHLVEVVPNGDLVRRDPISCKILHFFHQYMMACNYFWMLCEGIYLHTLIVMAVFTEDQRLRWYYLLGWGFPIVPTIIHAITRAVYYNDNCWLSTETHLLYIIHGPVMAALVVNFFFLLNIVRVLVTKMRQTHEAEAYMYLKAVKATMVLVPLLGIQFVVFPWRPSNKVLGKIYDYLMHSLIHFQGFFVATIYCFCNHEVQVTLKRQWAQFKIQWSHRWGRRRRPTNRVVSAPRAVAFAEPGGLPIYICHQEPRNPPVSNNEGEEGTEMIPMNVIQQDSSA

T3: rat amylin receptor (rat calcitonin receptor + rat RAMP 3) (rat, UniProt P32214 25-516; Q9JJ73 23-147)
T3 construct: whole, on cells; Used as membranes prepared from the transfected cells (Assay VI); also called rAmylin-R; rat amylin 3(a) receptor
T3 sequence (looked up) 1: T2 sequence (looked up)
T3 sequence (looked up) 2: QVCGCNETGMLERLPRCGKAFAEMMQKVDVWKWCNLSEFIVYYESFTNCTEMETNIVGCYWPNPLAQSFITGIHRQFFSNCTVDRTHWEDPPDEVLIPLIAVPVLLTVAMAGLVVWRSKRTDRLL

T4: human calcitonin receptor (human, UniProt P30988 25-474)
T4 sequence (looked up): T1 sequence (looked up)

B1: N^ε1-[(4S)-4-carboxy-4-[[(4S)-4-carboxy-4-(19-carboxynonadecanoylamino)butanoyl]amino]butanoyl]-[Ser14,Arg17,Pro21,Pro27,Pro34,Glu35]-h-amylin (peptide)
peptide: K([γGlu-γGlu-C20 diacid])CNTATCATQRLASFLRHSSPNFGAIPSSTNVGPETY-NH2
modifications: disulfide 2-7; N-terminus assumed
SMILES: CC[C@H](C)[C@H](NC(=O)[C@H](C)NC(=O)CNC(=O)[C@H](Cc1ccccc1)NC(=O)[C@H](CC(N)=O)NC(=O)[C@@H]1CCCN1C(=O)[C@H](CO)NC(=O)[C@H](CO)NC(=O)[C@H](Cc1c[nH]cn1)NC(=O)[C@H](CCCNC(=N)N)NC(=O)[C@H](CC(C)C)NC(=O)[C@H](Cc1ccccc1)NC(=O)[C@H](CO)NC(=O)[C@H](C)NC(=O)[C@H](CC(C)C)NC(=O)[C@H](CCCNC(=N)N)NC(=O)[C@H](CCC(N)=O)NC(=O)[C@@H](NC(=O)[C@H](C)NC(=O)[C@@H]1CSSC[C@H](NC(=O)[C@@H](N)CCCCNC(=O)CC[C@H](NC(=O)CC[C@H](NC(=O)CCCCCCCCCCCCCCCCCCC(=O)O)C(=O)O)C(=O)O)C(=O)N[C@@H](CC(N)=O)C(=O)N[C@@H]([C@@H](C)O)C(=O)N[C@@H](C)C(=O)N[C@@H]([C@@H](C)O)C(=O)N1)[C@@H](C)O)C(=O)N1CCC[C@H]1C(=O)N[C@@H](CO)C(=O)N[C@@H](CO)C(=O)N[C@H](C(=O)N[C@@H](CC(N)=O)C(=O)N[C@H](C(=O)NCC(=O)N1CCC[C@H]1C(=O)N[C@@H](CCC(=O)O)C(=O)N[C@H](C(=O)N[C@@H](Cc1ccc(O)cc1)C(N)=O)[C@@H](C)O)C(C)C)[C@@H](C)O
notes: not restated for each compound; also called compound 120
B2: N^ε1-[(4S)-4-carboxy-4-(19-carboxynonadecanoylamino)butanoyl]-[Glu14,Arg17,Pro21,Pro27,Pro34,Arg35]-h-amylin (peptide)
peptide: K([γGlu-C20 diacid])CNTATCATQRLAEFLRHSSPNFGAIPSSTNVGPRTY-NH2
modifications: disulfide 2-7; N-terminus assumed
SMILES: CC[C@H](C)[C@H](NC(=O)[C@H](C)NC(=O)CNC(=O)[C@H](Cc1ccccc1)NC(=O)[C@H](CC(N)=O)NC(=O)[C@@H]1CCCN1C(=O)[C@H](CO)NC(=O)[C@H](CO)NC(=O)[C@H](Cc1c[nH]cn1)NC(=O)[C@H](CCCNC(=N)N)NC(=O)[C@H](CC(C)C)NC(=O)[C@H](Cc1ccccc1)NC(=O)[C@H](CCC(=O)O)NC(=O)[C@H](C)NC(=O)[C@H](CC(C)C)NC(=O)[C@H](CCCNC(=N)N)NC(=O)[C@H](CCC(N)=O)NC(=O)[C@@H](NC(=O)[C@H](C)NC(=O)[C@@H]1CSSC[C@H](NC(=O)[C@@H](N)CCCCNC(=O)CC[C@H](NC(=O)CCCCCCCCCCCCCCCCCCC(=O)O)C(=O)O)C(=O)N[C@@H](CC(N)=O)C(=O)N[C@@H]([C@@H](C)O)C(=O)N[C@@H](C)C(=O)N[C@@H]([C@@H](C)O)C(=O)N1)[C@@H](C)O)C(=O)N1CCC[C@H]1C(=O)N[C@@H](CO)C(=O)N[C@@H](CO)C(=O)N[C@H](C(=O)N[C@@H](CC(N)=O)C(=O)N[C@H](C(=O)NCC(=O)N1CCC[C@H]1C(=O)N[C@@H](CCCNC(=N)N)C(=O)N[C@H](C(=O)N[C@@H](Cc1ccc(O)cc1)C(N)=O)[C@@H](C)O)C(C)C)[C@@H](C)O
notes: not restated for each compound

target: T1, human calcitonin receptor; experiment: ratio of IC50 on human calcitonin receptor (Assay VII) to IC50 on human amylin receptor (Assay V)
How it was run: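 Scintillation proximity competition binding on cell membranes at 35 ng/μL with SPA beads, in 50 mM Hepes pH 7.4, 1 mM CaCl2, 5 mM MgCl₂, 0.1% OA, 0.02% Tween20. Incubated 120 min at 25° C with shaking. IC₅₀ from one-site competition fit.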

Row | Ratio hCT/hAmylin binding | Binder
1 | 45.3 | B1
2 | 38.6 | B2

target: T2, rat calcitonin receptor; experiment: SPA competition binding, displacement of 125I-calcitonin from membranes of BHK tk'ts 13 cells transfected with rat calcitonin receptor (Assay VIII)

Row | IC50 [nM] | Binder
3 | 140 | B1
4 | 15.4 | B2

target: T2, rat calcitonin receptor; experiment: ratio of IC50 on rat calcitonin receptor (Assay VIII) to IC50 on rat amylin receptor (Assay VI)

Row | Ratio rCT/rAmylin binding | Binder
5 | 868 | B1
6 | 45.5 | B2

target: T3, rat amylin receptor (rat calcitonin …); experiment: SPA competition binding, displacement of 125I-rat amylin from membranes of BHK tk'ts 13 cells transfected with rat calcitonin receptor + rat RAMP 3 (Assay VI)

Row | IC50 [nM] | Binder
7 | 0.161 | B1
8 | 0.339 | B2

target: T4, human calcitonin receptor; experiment: cell-based or functional assay

Row | Ratio hCT/hAmylin funct. | Binder
9 | 19.5 | K([AEEA-AEEA-γGlu-C20 diacid])CNTATCATQRLANFLRHSSPNFGAIPSSTNVGPNTY-NH2 (disulfide 2-7 (inferred), also called compound 98)
10 | 60.9 | K([γGlu-C18 diacid])CNTATCATQRLANFLRHSSPNFGAIPSSTNVGHNTY-NH2 (disulfide 2-7 (inferred)) [N^ε1-[(4S)-4-carboxy-4-(17-carboxyheptadecanoylamino)butanoyl]-[Arg17,Pro21,Pro27,His34]-h-amylin]
11 | 33 | K([AEEA-AEEA-γGlu-C20 diacid])CNTATCATQRLANFLRHSSPNFGAIPSSTNVGHNTY-NH2 (disulfide 2-7 (inferred), also called compound 97)
12 | 26 | K([γGlu-γGlu-C20 diacid])CNTATCATQRLANFLRHSSPNFGAIPSSTPVGPRTY-NH2 (disulfide 2-7 (inferred))
13 | 28 | K([γGlu-γGlu-C20 diacid])CNTATCATQRLAHFLRHSSPNFGAIPSSTNVGSNTY-NH2 (disulfide 2-7 (inferred), also called compound 92)
14 | 65.1 | K([γGlu-C16 diacid])CNTATCATQRLANFLRHSSPNFGAIPSSTNVGHNTY-NH2 (disulfide 2-7 (inferred)) [N^ε1-[(4S)-4-carboxy-4-(15-carboxypentadecanoylamino)butanoyl]-[Arg17,Pro21,Pro27,His34]-h-amylin]
15 | 24.9 | K([γGlu-C20 diacid])CNTATCATQRLADFLRHSSPNFGAIPSSTNVGPRTY-NH2 (disulfide 2-7 (inferred))
16 | 29.3 | K([γGlu-γGlu-C20 diacid])CNTATCATQRLAEFLRHSSPNFGAIPSSTNVGPRTY-NH2 (disulfide 2-7 (inferred), also called compound 110)
17 | 33 | K([AEEA-AEEA-γGlu-C20 diacid])CNTATCATQRLANFLRHSSPNFGAIPSSTNVGRNTY-NH2 (disulfide 2-7 (inferred), also called compound 95)
18 | 36.9 | K([AEEA-C20 diacid])CNTATCATQRLANFLRHSSPNFGAIPSSTNVGHNTY-NH2 (disulfide 2-7 (inferred), also called compound 91) [N^ε1-[2-[2-[2-(19-carboxynonadecanoylamino)ethoxy]ethoxy]acetyl]-[Arg17,Pro21,Pro27,His34]-h-amylin]
19 | 38.8 | K([γGlu-C14 diacid])CNTATCATQRLANFLRHSSPNFGAIPSSTNVGHNTY-NH2 (disulfide 2-7 (inferred)) [N^ε1-[(4S)-4-carboxy-4-(13-carboxytridecanoylamino)butanoyl]-[Arg17,Pro21,Pro27,His34]-h-amylin]
20 | 17 | K([γGlu-C20 diacid])CNTATCATQRLAEFLRHSSPNFGAIPSSTNVGPRTY-NH2 (disulfide 2-7 (inferred))
21 | 16.4 | K([γGlu-γGlu-C20 diacid])CNTATCATQRLAEFLRHSSPNFGAIPSSTNVGPHTY-NH2 (disulfide 2-7 (inferred))
22 | 21 | K([AEEA-AEEA-γGlu-C20 diacid])CNTATCATQRLANFLRHSSPNFGAIPSSTPVGSNTY-NH2 (disulfide 2-7 (inferred), also called compound 96)
23 | 44.9 | K([γGlu-γGlu-C20 diacid])CNTATCATQRLADFLRHSSPNFGAIPSSTNVGPRTY-NH2 (disulfide 2-7 (inferred), also called compound 130)
24 | 15.8 | K([γGlu-γGlu-C20 diacid])CNTATCATQRLAEFLRHSSPNFGAIPSSTNVGHETY-NH2 (disulfide 2-7 (inferred))
25 | 17.3 | K([γGlu-γGlu-C20 diacid])CNTATCATQRLAEFLRHSSNNPGAILSSTNVGPETY-NH2 (disulfide 2-7 (inferred))
